Measurements reported in paper PMC4476739.
pKd: −log10 of the molar value.

Key:
[1] = target: DS-Cav1, 505-… (design without foldon) (respiratory syncytial virus) (UniProt P03420); assay: ELISA; D25 ELISA on 293T transient expression culture supernatants, 96-well microtiter plate format
[2] = target: DS-Cav1 1-C, foldon removed (respiratory syncytial virus) (UniProt P03420); assay: BLI; fortéBio Octet Red384; RSV F variant captured on motavizumab IgG loaded on anti-human Fc probes; Fab in solution 0.007 to 0.5 μM; 30°C; PBS + 1% BSA; 1:1 fit
[3] = target: RSV F DS-Cav1 with C-terminal T4 fibritin foldon (respiratory syncytial virus | bacteriophage T4) (UniProt P03420); assay: SEC; S200 size-exclusion chromatography of purified RSV F variants, before or after removal of the foldon with thrombin; PBS
[4] = target: RSV F DS-Cav1 with a thrombin cleavage site between RSV F and the foldon, before cleavage (respiratory syncytial virus | bacteriophage T4) (UniProt P03420); assay: as above

D25 antibody as used in the ELISA
D25 ELISA binding titer (OD) [1]: > 2 OD

D25 antigen binding fragment (Fab)
pKd [2]: 9.49

RSV F DS-Cav1 with C-terminal T4 fibritin foldon (from UniProt P03420 26-109; P03420 137-511) (domain or fragment)
stoichiometry N [3]: 3

RSV F DS-Cav1 with a thrombin cleavage site between RSV F and the foldon, before cleavage (from UniProt P03420 26-109; P03420 137-511) (domain or fragment)
stoichiometry N [4]: 3
